From the DeepSol protein solubility set

Test: soluble on expression in E. coli; label from the status in PepcDB or PDB records

Soluble on expression in E. coli, not soluble:
MGSDKIHHHHHHMTDSKCYAAIDIGSNAVRLLIKKVKNNENLANKRLSKVMLLRVPLRLGFDVFSLGEVSDAKVMKLRRLMKAFRQLMKIYEVINYRACATSAMRDAQNGKSVIKKVWKDTGINIEVINGQEEARMIYNNHIECLEDRAGNYIYVDVGGGSTEINFLINGELVQSLSYNIGTVRMLSNSVREGSWEQMKSDLTRLTADFQGVNIIGSGGNINKLYRLADKKDKKQSRLPITSLQELYDKLKVLTLEQRMEEFNLKTDRADVIVPAAGIFLIIAGIVKAEYIHVPVIGLADGIIDNLYAIDLKTE
MGSDKIHHHHHHMTEAAEAGNRGFEDYYVNIGFTPDRLVSMLSLTGLSSVHSVVAFYDDRPAGFILNGIRMIGGKQVAWNGGTAVVPELRRQGIGQKLMAATVECYEEQGVELATLEAFRINERAIALYETFGYHIVDQLCFLQHIGALETSFRSKSVGENDYRVARGTAHDVRLLSFYQHTAPWRTQWFALRGGQSILVKDALNHTIGYALYERVFDGEGSLASIVLYQCEAAPGRDDADEIVREALDALFAPHDEPCKRTTFNMPRANERVVRILQEAGFTDAHTADGIPFEQVYMVRKGKDDR
MGSDKIHHHHHHMTEGMNAGLAMPPAALETSGGANQVGVRAYNERLVMSLVRRHGSLSKAEIARRSGLSAQTVTVIMRVLEREKLLVRGEPVRGRVGQPSVPMRLNPDAVYSFGVKIGRRSANLVLMDFVGTIRHEVRRTYPYPMPGLLLDFIVGGISDIEGRLSVAERARIAGVGIAAPFELWSWAEETGAPSEEMDVWRETDLKADVAARIGYPVFIQNDATSACAAELVFGVGPHYPDFVYFFLGSFVGGGIVLNSSLFSGRTGTAGAVGPLPVQRRDGKTVQLLKIASIFVLENLLRDYGQDSQSLWYSPSDWVDYGEPLEIWIRDTAAALAQAIVAAASIIDFSAAVIDGGFPQWVRQRLVVAIQEAARDLDLQGVLMPEIVEGAVGHQARSVGGASLPLFSRYLLDQNVLFKELL
MGSDKIHHHHHHMTELHREAFDYAPNMRRLRAVIAVAEAGSVMRAAEALHLSQPAVTRAVRDLEKELGLALFERHRSGMLCTTAGKIVLHRFRRALQQLIEAETALARLHPEGNFERLPQRLSHRQLTVLVAVADLHNEPLAAKRLGLTQPAVSGNLRDLERLLGIALFLRTQRGMLATDGGAVLIRHAKMALRELSLVSDDLSAWQGEVRGRVVIGTLPLSSSLLVPHAVDALLRELPGLNVTIIEGTYDALFESLRHGEIDILIGALRQAGTSEDTHQQRLFHDRLAVAARQGHPLMKHAALQLSDLLDAQWIAPRQGTPARVSFEQEFRSAGLQPPSVVVESGNLSTIRTLLLDSDRVTLVSPHQVFFEVQSGQLALLPIKLTGTLRPIGITTRADDSPTQALKVLKDILLTLGERMADPSSATRA
MGSDKIHHHHHHMTELLARNADCIVWLARYMERAENLARILGVAETFARDRAGRNWLAVVQINADEERFFARHRVADARTVPHFYILDPDNPNSILSSIKAARENARTLRPMISIEMWRQINRMNTWMGGLSDNAVAPANLAALCEEIKEACQLHVGITEGTFYRDQAHYFYHLGKSIERADQTTRLLDIKYHTLLPRPEDVGSALDISHWNALLKAVAGYQASRRVLAGKITPRSVAAFLLFSDSFPRSVILCVRQMDWLMTQLRTRYHLRGGVKALELLDGLRAALTDHDIDHVIDHGLHEFIDWVQSQLMAIFAEIQDSFCVTRQPSQSQSQ
MGSDKIHHHHHHMTERTLRGQVAVVGVGESEYYRAGHAPDPEFRLLLKAVLAACRDADIDPADIDGFASFADDRNDAVRIATALGVKRLRSTTMQWGGGGGGCAAAVANGAAAIMSGMAQCVLVYRGLAQGQFGRFGQAAPRASISGEMAYQMPYGVLAPPQKFAMKVQRFMHEHGVRREALRAIALASYQHAQANPRAVMHGKPLTAEAYDASRWIVEPFRLFDCCMENDGAGALLLVAAERAKDFPHRPVYLLGAASGGDWRAAASPHNAPHYASANYSGVSGDLYRMARVSPADVGVVQSYENFTGGVAMALSEHGFFHPDEANDFLTPENLVAPSGKLPLNTSGGNLGECYVHGFELVIEAARQVRGESTSQAARHDVALVIGGPMVTPASSLLFGSAATL
MGSDKIHHHHHHMTFLRALLGATGQTLRAALAGLTVKPHSGHPVFPVTWVTPHIAAGPAPVSAAHLEALREQGIVAILNVCEELCTLADTEEAAGFEVRFLPIEDEGAPEPDALEEVLDWLDESVWRGRKVYVHCRWGVGRTGTVLHAYLLRRGLSPRRAEHFLSRLRSRPTSYTQWRSLRRFARRNPALTVREAAVEPGVADAMTPVLRDLARLVQEVERHVEAATPGISPEAFADAPRCGRDHVRCCATPPTLTLAEAAALTAAMDALLSSTQRDELRQKTSRGSGVPCPLLHDQRCLLYEARPLRCRTADMDETARLRLLEEVVADTLDDLDRRVFGLLAGCTPATSPPCFPIVEVLSGRYVATTFRHVACGLNTGKP
MGSDKIHHHHHHMTFVKKALSPDEYGEVLFQHDWMRGEPSDVVCELLAKSERLFFRQDDVLFREGDKMQHCLLVETGKLQAFRHTYGGDEKIFGQFERGEFVAIAAVFMDHGRFPMNIRALSDGHTLMIPRQDIHQFCLQRPELALRLLNYLGKKLYSTINQIDWLTSSSAPQRLADYLLRQHHIQQTQHLTLPVSRGQLATSLGMRGETLSRLMSDWKRQGHITYRGHQVELCDLNYLKELAAEARRTF
MGSDKIHHHHHHMTGAQPVILGDMPSLSKLYVNAAATAARRRVLGTGTGISLPPCGHEVRGVVADVGNLTAFQHLVGETASDTLPAGFIHALAFPVSMSVMNRDDFPLPLLGMVHLKNKVEQHGTILFTEALDITSWAESLRGHRAGTQVDIVAEVRRSGDAKVLWKGTSTYLAKGVFLPGIDKPSVPAPPATFSAPDPTALWELGVDTGRAYAAVSGDFNPIHLSVLSAKALGLRRSIAHGMYLASRALADVGAVKGESFSWEVSFETPVFLPARVALDISSVDSPSGAWQHSDYAAWNPRSGRRHFSGSVTALQGQD
MGSDKIHHHHHHMTHLDDMALFVEVVKAKGFRGAADALGMPNSTLSRRIGALEKAIGLRLLHRTTRKVEPTEAGLLYYERSKRIVEEARLVHEQLGEMLAQPSGLLRASFPEGFANIFLAPLVAEFARRYPGIRFEFDLSPRLADLVSDPVDVAIRMGEPANSNLIARQLARLPRHLYASPRYLDMLGEPQHPDELVQHECLRLRGSKSDIWTVQNRDETVDVAVGGRFLLNSVGMIQRLAALDMGIAILAESIVTDDVAQGRLRRVLPQWEATPVPVYALTETRLLPAKTQRFIDFLREHLSSI
MGSDKIHHHHHHMTHQANDAVAPASGMIELSHSFDANRFLAAVDRDERATLIANLQLVHLKSGQVLCEPGEMLTAVYLPVTTAISLQYVSTGGMTLEVAQIGSESVVCDDVIGGSGRMPCRAVACRDGFVYRLDRRIFAAAFDASPVIRHLVFVCVRLLMAQVAQITFCSRHHVLKHQLCRWFLLAYDRSRSIEIQVTHSMLAQMLGVRRETVTDAAGEIQRLGLIRQYRSSIVLADLAGLEKLSCGCRAIVRDEMKRILSADSGVSAAARA
MGSDKIHHHHHHMTHSTDITTLARWFAADFSNQQQAFDNPPLFAHIRVCMRPLPYQLLNGLSLYLEQAYDITLNQPYRVRVLKLVPSENHIEIENYIIDQEAEFYGASRDPQRLKNLKTEYIKKLPGCTFITKWTGKSFKGEVEPGKGCTVVREGKSTYLKSYFEINEHKFISHDTGYDPETDQQVWGAIAGPFEFVRWASFADEVI
MGSDKIHHHHHHMTIQKHFPTVEMADIHFELIGGLSSQSWRIRGPGIEWLARRQSPVERKMGVDRQREFALLRQMSAVGLAPRPLLWRDGWLIVEWVPGRIATSDEFLMMLANGEVARVLSQLHRQPRSGHPLNFKILFAQHWQLMDPCRRSPALLRAHHHFQRAALPTPLALVPLHLDVHAENLLITPQGTMLIDWEYASDGDIAFELAFIVRASQMDSVAQTYFLQSYQRHRRGFSVSRLQQQMMQWFPWVDYLVLMWFEVRWQQTKNLEFLAEIPALRHRLQLG
MGSDKIHHHHHHMTITTQSLPVVRRHTIHFLEKAKNSQAVYLSTDIDASRIQEVKRRYEQASIKISYISFLLFAISRAIEVFPEVNSSVQGRWHLKRWQFSTIDAKVTLDKLAGQERMVVSSVIPETNKKSLLAIQDEINELKIASFETSDRFQSIRKLQRLPLWIGRIIYRKILQNPITWQQTQGSFTITSLGHVPIQSFFPITTNTVCFGVGSIRECAVVREGQVVVRPMLPLSMTFDHRAIDGALASEFLYRIKQNVEEWEVEAWEDDQKNQAMM
MGSDKIHHHHHHMTIYSPDTINFNGVNGDRYWFDEPFPYTGVGDIDERLSGFPVAVFLPHHRPRQETPLVIGLQGMCAPYGWNAFIVPTLTEMGIAVALFDPPLSGERSLVRTSTTLVQNEIKPLIDRGIPFDTALFLSIFRTTARDISKIREFCGDRYGLTDSRLALFGVSMGVLLSAYAFTANSLGDRLLGTIGHADLPSFAKSWGRPFLPDLAASPLGGLAESLLQRLQPDLAPLFQLLRLTKNLKYQDEYAWDCNPMNYIQQVDSHRRVRFLVGANDSIVKIKDARACAQKFPDGDCYVVPGMGHGTRQSGVSFVDHVRYFLATQLGDWCG
MGSDKIHHHHHHMTKARDDRYNFGFLDENTKRMLRRSLLKAVAIPGYQVPFGSREMPLPYGWGTGGIQLTASVIGRDDVLKVIDQGADDTTNAVNIRRFFGRVAGVATTTRTADATLIQTRHRIPETPLKPGQILIFQVPEPEPLRTLEASEVETRKLHAHQEYGLMHVKLYEDIARFGHIATSYDYPVMVNDRYLASPSPIPKFDNPKLDMNPALLLFGAGREKRLYAIPPYTKVESLAFDDHPFEIQSWQQGCAICGSHDSYLDEIVIDDAGSRMFVCSDTDYCQREKQA
MGSDKIHHHHHHMTKDDQKELGKTLWAIADQLRGSMNADDFRDYMLSFLFLRYLSDNYEAAAKKELGSDYPDAKTIGNSDKTPLSVWYASNPGDVAAFEQQMRRKAHYVIKPKYLWGNIVNLAKKQNHDLLDTLQQGFKHIEEDSFESEFQGLFSEINLASDKLGRKYDDRNAKLCSIISEIARGMALSAKTDSLGDAYEYLIGQFAAGSGKKAGEFYTPQEISNILSAIVTLDSQEPKTGPRGKLDSVFDFACGSGSLLLNIRNRMTNSGGSIGKIYGQEYNVTTYNLARMNMLLHGVKDTEFEIYHGDTLKNDWDWLRETNPAKKPRFDAVVANPPFSYRWEPGEAMAQDARFKNHGVAPKSAADFAFLLHGLQYLKDDGVMAIILPHGVLFRGGKEADIRRKLLDDGHIDTVIGLPANLFYSTGIPVCILVLKKCKKPDDVLFINAAGHFAKGKRQNQLTDEHIQRIVNTYQNRNKQDRYSRCVSMKEIADKDYNLNISRYVSTAEADKEIVLEAVHADLTAIESRLEESKKRHNAFLVELGLKPLP
MGSDKIHHHHHHMTKHIHWDGNLSQEGFEIVKGEGGVIVCPTKVGYIIMTSDKKGLERKFEAKKRNRNKPGVVLCGSMEELRALAQLTPEIDAFYQKHWDEDILLGCILPWKAEAYEKLKAYGDGREELMTDIRGTSCFVIKFGVAGEQIAKEMWEKEGRMVYASSANPSGKGNRGKVEGIGERIESMVDLVIEADDYVASIQPDKTIETRYEQGVMVSMVDKDGKLIPQQGADSRSVEPCPVVIRKGLDIDKIMMHLSDQFNSWNYRQGEYY
